{"source": "the DeepSol protein solubility set"}
{"experiment": "soluble on expression in E. coli; label from the status in PepcDB or PDB records"}
{"sequence": "MAPRKKVNEMVIRKTANLTDKMRKERTVEEFEEVKTAQSKSYESDTSSAESLRQKRTAPSAIRTVQIQKEIVLPYDGNLVSVYEKSSNTRSLDTISEPGDLEEFKKKAEESKYVGPQIVPMKFVTTDVETPVKAIFVSDFDFCQAMHHPPQSSTQSKKVEFSKRFEVEQKFLEEMVADIEKLIVSSGRMDVELKVVKAREENDSPRAKISLVRKIHAEKVDDNLNNQAGLVGFILPDLEMKDHGIPLKITKNQQVPSGQKMFESFKRLFGY", "soluble on expression in E. coli": "not soluble"}
{"sequence": "MAKQRVFIAGHRGMVGSAIRRQLEQRGDVELVLRTRDELNLLDSRAVHDFFASERIDQVYLAAAKVGGIVANNTYPADFIYQNMMIESNIIHAAHQNDVNKLLFLGSSCIYPKLAKQPMAESELLQGTLEPTNEPYAIAKIAGIKLCESYNRQYGRDYRSVMPTNLYGPHDNFHPSNSHVIPALLRRFHEATAQKAPDVVVWGSGTPMREFLHVDDMAAASIHVMELAHEVWLENTQPMLSHINVGTGVDCTIRELAQTIAKVVGYKGRVVFDASKPDGTPRKLLDVTRLHQLGWYHEISLEAGLASTYQWFLENQDRFRG", "soluble on expression in E. coli": "soluble"}
{"sequence": "MGSDKIHHHHHHMTDPDIGDSQDHANIISILQDLGLTENESRVYILLLEYGSMAAQDILRYLPLRQPQLYDITSSLERKGFINVLLGRPKKYEAIDPEAVVEAREQILSRNRRYFLTWANRAMETRRETTALINAKNIRSVINNSIDLINETEKTLEIETTQELFAYIREPILRKIREGCRVEILFFGTDVDLEKVQNQFTDLDVDVRYVSPGQFFTVISDEKNSVFMPRSVAMNTDIERYGYVIRDKDMSWFITHNFFVGWYRGNRIKDHSVVAPYTYHSQRILISDLKRIFDQKGRVHGVLEGIVRSTGDRFTSEGEISEINSDTEIINFVFKTDRGEYTVGGYDSQIEDIVMKSFTVASFG", "soluble on expression in E. coli": "not soluble"}
{"sequence": "MAHHHHHHMGLEIFEIDTSTPHTGVVIDGTTACREANSGWVTLRAKTPLSAGQCQWAMKVIDQGEGNDGSGLMMGLLPRLNSQQEVAMGSKYISELGGWCLSRAGDSYGCWKCDKMPFSTGCVVEFDWDAASRTLYIVSGKRKASGHIPNVSEADVVYPAFSMFYLNQKLAFV", "soluble on expression in E. coli": "soluble"}
{"sequence": "MDRNEVRHAWDSVSETYAERRDPTGSDAALLEDLLERLPEAPTVLDVGCGDGARTLANLPPRSVGLDFSRAGLDLAAETVPDSRLVQGDMGSLPVTTDSVDAITAYHAVFHVQRDQHPEVYREFARVLRPGGTVLMTLPSGQFETVRRGWMGGSMFFSAPGRRATLDQLADAGFTETETVTATDPLGSDSEFVFATLADALEHHHHHH", "soluble on expression in E. coli": "soluble"}
{"sequence": "MNTTANPSNIIVGLSGGVDSSVTAALLKQQGYQVRGVFMQNWEDDDNDEYCSIKQDSFDAIAVADIIGIDIDIVNFAAQYKDKVFAYFLQEYSAGRTPNPDVLCNAEIKFKCFLDYAVGQGADTIATGHYARKEVRNGVHYLLKGLDRNKDQSYFLYRLKPFQLERAIFPLGGLEKPEVRRLAAEFKLPTAAKKDSTGICFIGERPFREFLQKYLPTDNGKMVTPEGKTVGEHVGLMFYTLGQRKGLGIGGAGEPWFVAAKDLTKNELIVVQGHDHPLLYTRSLVMNDLSFTLPERPKAGRYTCKTRYRMADAPCELRYLDDETAELVFDEPQWAVTPGQSAVLYDGDICLGGGIIQTTDKPVIITR", "soluble on expression in E. coli": "not soluble"}
{"sequence": "MKVLAFDTSSKALSLAILEDKQVLAETTINIKKNHSITLMPAIDFLMASLDWTPKDLDRIVVAEGPGSYTGLRIAVATAKTLAHTLNIELVGMSSLLALVPHQQEGLFVPLMDARRNNVYAGFYENAKPVMAEAHLSFEEVLEKVKGTSQVTFVGEVGPFVEQIQKHLPRTDYKETLPNAANLALLAWDKEADSLHDFVPNYLKRVEAEENWLKNHTESGESYIKRL", "soluble on expression in E. coli": "not soluble"}
{"sequence": "MTTTQDWIMIGGYGPESYNQQSSYQRALLEAAKDKMTEAISANLDLDLISNRFIVADFGCASGPNTFVAVQNIIDAVEEKYLRETGQNPEDNIEFQVLFNDLRINDFNTLFQTLPPGRRYFSAGVPGSFFNRVLPKQSFHIAVMSYAFLFTSKIPKGIMDRDSPLWNKDMQCTGFNPAVKKAYLEQYSIDTKNLLDARAEELMPGGLMLLLGSCMRDGVKMSETLKGTVMDFIGESLNDLAQKGVTEQEKVDTFKTSIYFAEQGEIRQIIEENGKFTIEAFEDIIHSKNEFPLDPKTLAISFKALYGAFISAHFGIEVMRKAFELVEVKAREQISRLHKVKPGMQYLIVLRKN", "soluble on expression in E. coli": "soluble"}
{"sequence": "MDYTIVVSATASDAAPLKFLAPYSGCAIGEHFLDNGKHALIIFDDLSKKAANCHVVCRTDEIELDILNRMEEDIKLHPLTWYDIWSSLETKIKVVRARIPKSLSRR", "soluble on expression in E. coli": "not soluble"}
{"sequence": "MDSYGYVETLGLVTAIEAADAALKAANVTLMNCYYVKGGIVTIEVAGDVSAVTAAVDAATESAKRLGNFLSSNVIARIDSETKKILISDLGNKEKKQKIENKSVVKDTTIEKKATEKISTEEITEEIINESKNENFDEEQNKEINEKVTEIAEVYEKVENPAEKLDQNNDIQEKIEVFEIEVEKEDDEAEKLKKQYQGMKVIDLKKMVNSCKLGYTWNQIKTMPKKKLIEILIKNNKEEAQWQH", "soluble on expression in E. coli": "not soluble"}
{"sequence": "MPADIMEKNSSSPVAASVNTTPDKPKTASEHRKSSKPIMEKRRRARINESLSQLKTLILDALKKDSSRHSKLEKADILEMTVKHLRNLQRAQMTAALSTDPSVLGKYRAGFSECMNEVTRFLSTCEGVNTEVRTRLLGHLANCMTQINAMTYPGQPHPALQAPPPPPPGPGGPQHAPFAPPPPLVPIPGGAAPPPGGAPCKLGSQAGEAAKVFGGFQVVPAPDGQFAFLIPNGAFAHSGPVIPVYTSNSGTSVGPNAVSPSSGPSLTADSMWRPWRN", "soluble on expression in E. coli": "soluble"}
{"sequence": "MSTLPPCPQCNSEYTYEDGALLVCPECAHEWSPNEAATASDDGKVIKDSVGNVLQDGDTITVIKDLKVKGSSLVVKVGTKVKNIRLVDGDHDIDCKIDGIGAMKLKSEFVRKV", "soluble on expression in E. coli": "not soluble"}
{"sequence": "MGSDKIHHHHHHMMFEFNFARAMASLREEYAKDAKINIQHVWQNETAAVIAKALATEVSFDNAMFVENKPMRISDQQIRQLPVEAQKDLQQKILQNAANGIGFLYGSHLVGGLDGKPSPELLTSLHRFINSPDMFKFIQSITGIEGICYASLQASRYIQGNFLTRHNDVVESEGRKVAFVFGFTPEWHPDWGGLLQFYTPKGVLTDTWVPTFNNLALFDVHHPHSVSFVAPFAKRPRFSVTGWFRTIAPSK", "soluble on expression in E. coli": "not soluble"}
{"sequence": "MQTVGVHSIVQQLHRNSIQFTDGYEVKEDIGVGSYSVCKRCIHKATNMEFAVKIIDKSKRDPTEEIEILLRYGQHPNIITLKDVYDDGKYVYVVTELMKGGELLDKILRQKFFSEREASAVLFTITKTVEYLHAQGVVHRDLKPSNILYVDESGNPESIRICDFGFAKQLRAENGLLMTPCYTANFVAPEVLERQGYDAACDIWSLGVLLYTMLTGYTPFANGPDDTPEEILARIGSGKFSLSGGYWNSVSDTAKDLVSKMLHVDPHQRLTAALVLRHPWIVHWDQLPQYQLNRQDAPHLVKGAMAATYSALNRNQSPVLEPVGRSTLAQRRGIKKITSTAL", "soluble on expression in E. coli": "soluble"}
{"sequence": "MGSSHHHHHHSSGLVPAGSHMSDFDNITTADDVFKLAAQRTGLSEIDSDSWREGLALIVDEVNTSPVFTPFGRQRVLDDATNALGRRLQVHAYIQDHPEVLDAPVERPLIVLGMPRTGTTVISYLLDQDPARRSLLHWQCVHPIPPASTETLRTDPRCLALLDEQRKILDAVTRAKMPLPHWEDADGPTEDMFIHNQDFKGLSWDSFLPTDRYARWLFDEADMSSTYEYQKRYLQVLQSTAPGSWSLKMPSHSVHIEALLKVFPDARLIWAHRDPYKATGSLCNLWRLPQSLVMNTELLDQTEMGRLAMWQMRYHVDRPLRARERIGDERFFHMYYHEMMRDPMDVMRRIYEWADEPLTAETEARMRNWLAHHPQDRFALNAYRLDEYGLTVEALQPIFAEYLDTFDIELEGRP", "soluble on expression in E. coli": "soluble"}
